Earlier results as cited in patent US11033606B2, “Composition comprising aflibercept, folinic acid, 5-fluorouracil (5-FU) and irinotecan (FOLFIRI)” (SANOFI, priority 2011, dated 2021).

How the values were obtained:
[1] = test system: previously treated patients with metastatic colorectal cancer; details: pre-treated patients with MCRC
[2] = test system: non-small cell lung cancer (NSCLC); details: aflibercept added to docetaxel vs docetaxel plus placebo, second-line NSCLC

What does the source list for “aflibercept: fusion protein: VEGFR1 D2 Ig domain fused to VEGFR2 D3 Ig domain, fused to IgG1 Fc domain (SEQ ID No 1)”?
Tolerability [1]: well tolerated; Primary endpoint of improvement in overall survival [2]: did not meet the pre-specified criteria
